Test results from US20240166765A1 (ICONIC THERAPEUTICS, published 2024).
Changes are numbered by the printed parent chain.

Key:
Assay in all cases: cell-based or functional assay
[1] = target: T1, human Tissue Factor on MDA-MB-231 cells (human, UniProt P13726 33-295)
[2] = target: human Tissue Factor (hTF), endogenously expressed on human TF-positive cells (human, UniProt P13726 33-295)
Relipidated TF = Relipidated TF (UniProt P13726 33-295, limits assumed)
[3] = target: T1, human Tissue Factor on MDA-MB-231 cells; remark: listed apart in the source

B1: 25G1 (antibody, human IgG1, kappa, V domains shown)
VH: QVQLVQSGAEVKKPGASVKVSCKASGYTFRSYGISWVRQAPGQGLEWMGWVAPYSGNTNYAQKLQGRVTMTTDTSTSTAYMELRSLRSDDTAVYYCARDAGTYSPYGYGMDVWGQGTTVTVSS
VL: DIQMTQSPSTLSASVGDRVTITCRASHSIDSWLAWYQQKPGKAPKLLIYKASYLESGVPSRFSGSGSGTEFTLTISSLQPDDFATYYCQLFQSLPPFTFGGGTKVEIKR
- % IL8, 2.56 nM Ab [1]: 46%
- % IL8, 6.4 nM Ab [1]: 12%
- % IL8, 16 nM Ab [1]: 9%
- % IL8, 40 nM Ab [1]: 8%
- % IL8, 100 nM Ab [1]: 9%

B2: anti-TF antibody 25A5 (antibody, human IgG1, kappa, V domains shown)
VH: B1 VH with R30D, S31V, V51I, Y106F
VL: B1 VL with H27E, D30S, S31N, S52Y, Y53S, S56Y, L90Q, S93K
- % GM-CSF, 2.56 nM antibody, MDA-MB-231 cells + FVIIa [2]: 72%
- % GM-CSF, 6.4 nM antibody, MDA-MB-231 cells + FVIIa [2]: 18%

B3: 25G9 (antibody, human IgG1, kappa, V domains shown)
VH: B1 VH
VL: B1 VL with R24Q, H27Q, K50S, L90R
- % IL8, 2.56 nM Ab [1]: 51%
- % IL8, 16 nM Ab [1]: 15%
- % IL8, 40 nM Ab [1]: 14%
- % IL8, 100 nM Ab [1]: 13%

B4: 25A3 (antibody, human IgG1, kappa, V domains shown)
VH: B1 VH with R30D, S31V, V51I, Y106F
VL: B1 VL with R24Q, H27Q, D30N, S31N, S52Y, Y53N
- % IL8, 2.56 nM Ab [1]: 47%
- % IL8, 6.4 nM Ab [1]: 9%
- % IL8, 16 nM Ab [1]: 8%
- % IL8, 40 nM Ab [1]: 8%
- % IL8, 100 nM Ab [1]: 8%

B5: 25A5 (antibody, human IgG1, kappa, V domains shown)
VH: B1 VH with R30D, S31V, V51I, Y106F
VL: B1 VL with H27E, D30S, S31N, S52Y, Y53S, S56Y, L90Q, S93K
- % IL8, 2.56 nM Ab [1]: 70%
- % IL8, 16 nM Ab [1]: 7%
- % IL8, 40 nM Ab [1]: 7%

B6: 39A (antibody, human IgG1, V domains shown)
VH: QVQLVQSGAEVKKPGSSVKVSCKASGGTFSSNAIGWVRQAPGQGLEWMGSIIPIIGFANYAQKFQGRVTITADESTSTAYMELSSLRSEDTAVYYCARDSGYYYGASSFGMDVWGQGTTVTVSS
VL: EIVMTQSPATLSVSPGERATLSCRASQSVSSNLAWYQQKPGQAPRLLIYGASTRATGIPARFSGSGSGTEFTLTISSLQSEDFAVYYCEQYNNLPLTFGGGTKVEIK
- % ETP, TGA 10 min pre-incubation, 10 nM Ab (Relipidated TF): 0%
- % Peak IIa, TGA […] min pre-incubation, 10 nM Ab (Relipidated TF): 13%
- % Peak IIa, TGA […] min pre-incubation, 50 nM Ab (Relipidated TF): 8%
- % Peak IIa, TGA […] min pre-incubation, 100 nM Ab (Relipidated TF): 7%
- % ttPeak, TGA 10 min pre-incubation, 10 nM Ab (Relipidated TF): 319%
- % ttPeak, TGA 10 min pre-incubation, 50 nM Ab (Relipidated TF): 491%
- % ttPeak, TGA 10 min pre-incubation, 100 nM Ab (Relipidated TF): 537%
- Lag Time, TGA 10 min pre-incubation, 10 nM Ab (Relipidated TF): 19.6 min
- Lag Time, TGA 10 min pre-incubation, 50 nM Ab (Relipidated TF): 30.7 min
- Lag Time, TGA 10 min pre-incubation, 100 nM Ab (Relipidated TF): 33.6 min
- Peak IIa, TGA […] min pre-incubation, 10 nM Ab (Relipidated TF): 36 nM
- Peak IIa, TGA […] min pre-incubation, 50 nM Ab (Relipidated TF): 22 nM
- Peak IIa, TGA […] min pre-incubation, 100 nM Ab (Relipidated TF): 19 nM
- ttPeak, TGA 10 min pre-incubation, 10 nM Ab (Relipidated TF): 29.3 min
- ttPeak, TGA 10 min pre-incubation, 50 nM Ab (Relipidated TF): 41.4 min
- ttPeak, TGA 10 min pre-incubation, 100 nM Ab (Relipidated TF): 44.6 min

B7: 43B (antibody, V domains shown)
VH: QVQLQESGPGLVKPSQTLSLTCTVSGGSISSGQYWSWIRQHPGKGLEWIGEIYYSGSTRYNPSLKSRVTISVDTSKNQFSLKLSSVTAADTAVYYCARDAPYYYGGGYYYYMDVWGKGTTVTVSS
VL: EIVLTQSPGTLSLSPGERATLSCRASQSVSSSYLAWYQQKPGQAPRLLIYGASSRATGIPDRFSGSGSGTDFTLTISRLEPEDFAVYYCQQVGVVPYTFGGGTKVEIK
- % IL8, 2.56 nM Ab [1]: 50%
- % IL8, 16 nM Ab [1]: 5%
- % IL8, 40 nM Ab [1]: 4%
- % IL8, 100 nM Ab [1]: 4%

B8: anti-TF antibody 43D (antibody, human IgG1, V domains shown)
VH: QVQLQQWGAGLLKPSETLSLTCAVYGGSLSGYYWSWIRQPPGKGLEWIGEIGASGSTRYNPSLKSRVTISVDTSKNQFSLKLSSVTAADTAVYYCARDTPYYYEGGYYYYMDVWGKGTTVTVSS
VL: B7 VL
- % GM-CSF, 2.56 nM antibody, MDA-MB-231 cells + FVIIa [2]: 56%
- % GM-CSF, 6.4 nM antibody, MDA-MB-231 cells + FVIIa [2]: 24%
- % GM-CSF, 16 nM antibody, MDA-MB-231 cells + FVIIa [2]: 13%
- % GM-CSF, 40 nM antibody, MDA-MB-231 cells + FVIIa [2]: 11%
- % GM-CSF, 100 nM antibody, MDA-MB-231 cells + FVIIa [2]: 12%

B9: anti-TF antibody 43B1 (antibody, human IgG1, V domains shown)
VH: B7 VH
VL: B7 VL with Q27E, S30D, S54T, A56Q, V92A
- % GM-CSF, 2.56 nM antibody, MDA-MB-231 cells + FVIIa [2]: 50%
- % GM-CSF, 6.4 nM antibody, MDA-MB-231 cells + FVIIa [2]: 16%

B10: anti-TF antibody 43B7 (antibody, human IgG1, V domains shown)
VH: B7 VH
VL: B7 VL with Q27E, S30D, S53D, V92D
- % GM-CSF, 2.56 nM antibody, MDA-MB-231 cells + FVIIa [2]: 50%
- % GM-CSF, 6.4 nM antibody, MDA-MB-231 cells + FVIIa [2]: 17%

B11: 43B7 (antibody, V domains shown)
VH: B7 VH
VL: B7 VL with Q27E, S30D, S53D, V92D
- % IL8, 2.56 nM Ab [1]: 55%
- % IL8, 6.4 nM Ab [1]: 15%
- % IL8, 16 nM Ab [1]: 8%
- % IL8, 40 nM Ab [1]: 4%
- % IL8, 100 nM Ab [1]: 4%

B12: 54E (antibody, human IgG1, V domains shown)
VH: QVQLVQSGAEVKKPGASVKVSCKASGYTFANYYMHWVRQAPGQGLEWMGIINPSGGITVYAQKFQGRVTMTRDTSTSTVYMELSSLRSEDTAVYYCARGGSKVAALAFDIWGQGTMVTVSS
VL: DIQMTQSPSSLSASVGDRVTITCQASQDISNSLNWYQQKPGKAPKLLIYDASNLETGVPSRFSGSRSGTDFTFTISSLQPEDIATYYCQQYNFHPLTFGGGTKVEIK
- % ETP, TGA 10 min pre-incubation, 10 nM Ab (Relipidated TF): 83%
- % Peak IIa, TGA […] min pre-incubation, 10 nM Ab (Relipidated TF): 43%
- % Peak IIa, TGA […] min pre-incubation, 50 nM Ab (Relipidated TF): 16%
- % Peak IIa, TGA […] min pre-incubation, 100 nM Ab (Relipidated TF): 13%
- % ttPeak, TGA 10 min pre-incubation, 10 nM Ab (Relipidated TF): 96%
- % ttPeak, TGA 10 min pre-incubation, 50 nM Ab (Relipidated TF): 303%
- % ttPeak, TGA 10 min pre-incubation, 100 nM Ab (Relipidated TF): 371%
- ETP, TGA 10 min pre-incubation, 10 nM Ab (Relipidated TF): 1520 nM·min
- Lag Time, TGA 10 min pre-incubation, 10 nM Ab (Relipidated TF): 6.5 min
- Lag Time, TGA 10 min pre-incubation, 50 nM Ab (Relipidated TF): 18.3 min
- Lag Time, TGA 10 min pre-incubation, 100 nM Ab (Relipidated TF): 22.3 min
- Peak IIa, TGA […] min pre-incubation, 10 nM Ab (Relipidated TF): 121 nM
- Peak IIa, TGA […] min pre-incubation, 50 nM Ab (Relipidated TF): 44 nM
- Peak IIa, TGA […] min pre-incubation, 100 nM Ab (Relipidated TF): 37 nM
- ttPeak, TGA 10 min pre-incubation, 10 nM Ab (Relipidated TF): 13.7 min
- ttPeak, TGA 10 min pre-incubation, 50 nM Ab (Relipidated TF): 28.2 min
- ttPeak, TGA 10 min pre-incubation, 100 nM Ab (Relipidated TF): 33 min

B13: 5G9 (humanized TF8-5G9, CNTO 860) (antibody, V domains shown)
VH: QVQLVESGGGVVQPGRSLRLSCKASGFNIKDYYMHWVRQAPGKGLEWIGLIDPENGNTIYDPKFQGRFTISADNSKNTLFLQMDSLRPEDTAVYYCARDNSYYFDYWGQGTPVTVSS
VL: DIQMTQSPSSLSASVGDRVTITCKASQDIRKYLNWYQQKPGKAPKLLIYYATSLADGVPSRFSGSGSGTDYTFTISSLQPEDIATYYCLQHGESPYTFGQGTKLEIT
- % FXa, 12.5 nM Ab [3]: 37%
- % FXa, 25 nM Ab [3]: 33%
- % FXa, 50 nM Ab [3]: 30%
- % FXa, 100 nM Ab [3]: 30%
